In patent publication US20150218250A1 one finds response units and Kd data, which are given here for 4 substances.

In assay [1] the target is antibody captured by the human Fab capture kit. Briefly: SPR (BIAcore), antibody captured via human Fab capture kit, 50 nM receptor injected as analyte. For orientation: Surface plasmon resonance follows binding to a sensor surface in real time, without labels.
For assay [2] the target is unchanged. The assay can be described thus: SPR (BIAcore), antibody captured via human Fab capture kit, 50 nM receptor fusion injected as analyte.
The target of assay [3] is -. Briefly: SPR; monomeric, middle panel.
Assay [4] addresses -. The assay can be described thus: SPR; monomeric, top panel.

As for “FcgammaRIIIaV158 (HisAvi-tag comprising functional variant) (receptor)”, the response units in assay [1] was 40 RU.
As to “FcgammaRIIIaV158-Avi-IgA Protease-Fc LALA P329G fusion polypeptide (Fc fusion)”, the response units in assay [2] was over 100 RU.
Usually Kd stands for the free concentration of one partner at which half of the binding sites on the other are occupied at equilibrium, for simple one-to-one binding. A low value points to tighter binding. In the assay with - [3], “monomeric IL18R-Fc fusion polypeptide (middle)” registered a dissociation constant (Kd) of 0.801 nM. This counts as sub-nanomolar.
Substance “monomeric IL18R-Fc fusion polypeptide (top)” returned a dissociation constant Kd in the assay with - [4] of 0.921 nM.
